Numbered stars: 1 amine (or outer) side, 2 acyl side, 3 side chain; on linkers, the order of the positions; unused ones are H or OH. Bridge positions count the residues as written; N and C are the ends. Square brackets hold non-standard residues; d marks the D form. Side chains are listed from the residue outwards. Ends that are not written are not given here. * marks the point of attachment. C20 diacid = O=C(O)CCCCCCCCCCCCCCCCCCC(=O)*; γGlu = O=C(O)[C@H](CCC(=O)[*:2])N[*:1]
T1: human calcitonin receptor (human, UniProt P30988 25-474)
T1 sequence (looked up): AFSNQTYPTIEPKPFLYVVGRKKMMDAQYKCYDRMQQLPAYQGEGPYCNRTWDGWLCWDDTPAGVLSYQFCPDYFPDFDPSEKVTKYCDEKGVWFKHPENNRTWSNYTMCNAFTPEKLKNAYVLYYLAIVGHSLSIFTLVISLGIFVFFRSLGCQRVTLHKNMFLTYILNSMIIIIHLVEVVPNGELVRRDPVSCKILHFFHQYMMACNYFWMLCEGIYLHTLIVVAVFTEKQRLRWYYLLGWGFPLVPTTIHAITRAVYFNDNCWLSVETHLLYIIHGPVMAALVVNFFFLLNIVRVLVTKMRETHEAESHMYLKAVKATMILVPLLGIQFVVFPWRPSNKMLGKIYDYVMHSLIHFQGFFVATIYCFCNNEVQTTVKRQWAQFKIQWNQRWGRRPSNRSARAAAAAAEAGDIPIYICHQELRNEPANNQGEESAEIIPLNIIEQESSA

T2: human amylin 3(a) receptor (human calcitonin receptor co-expressed with RAMP-3) (human, UniProt P30988 25-474; O60896 24-148, limits assumed)
T2 sequence (looked up) 1: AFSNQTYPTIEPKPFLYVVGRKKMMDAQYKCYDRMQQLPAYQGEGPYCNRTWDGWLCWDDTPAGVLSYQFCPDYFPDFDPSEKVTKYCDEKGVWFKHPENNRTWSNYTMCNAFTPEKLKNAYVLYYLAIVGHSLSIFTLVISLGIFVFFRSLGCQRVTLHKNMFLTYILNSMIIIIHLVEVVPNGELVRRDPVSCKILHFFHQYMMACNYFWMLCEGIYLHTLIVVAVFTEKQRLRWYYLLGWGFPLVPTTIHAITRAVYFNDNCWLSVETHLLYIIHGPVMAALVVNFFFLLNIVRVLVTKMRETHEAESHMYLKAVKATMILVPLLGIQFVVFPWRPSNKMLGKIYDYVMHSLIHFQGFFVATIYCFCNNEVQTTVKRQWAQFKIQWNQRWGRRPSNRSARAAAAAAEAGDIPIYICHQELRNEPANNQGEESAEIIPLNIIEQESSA
T2 sequence (looked up) 2: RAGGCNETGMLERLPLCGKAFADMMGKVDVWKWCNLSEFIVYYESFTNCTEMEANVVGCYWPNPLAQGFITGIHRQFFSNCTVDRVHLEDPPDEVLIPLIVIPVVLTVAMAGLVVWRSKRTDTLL

T3: rat amylin receptor (rat calcitonin receptor + rat RAMP 3) (rat, UniProt P32214 25-516; Q9JJ73 23-147)
T3 construct: whole, on cells; Receptor complex in cell membranes prepared from transiently transfected BHK tk'ts 13 cells (Assay VI); also called rAmylin-R; rat amylin 3(a) receptor
T3 sequence (looked up) 1: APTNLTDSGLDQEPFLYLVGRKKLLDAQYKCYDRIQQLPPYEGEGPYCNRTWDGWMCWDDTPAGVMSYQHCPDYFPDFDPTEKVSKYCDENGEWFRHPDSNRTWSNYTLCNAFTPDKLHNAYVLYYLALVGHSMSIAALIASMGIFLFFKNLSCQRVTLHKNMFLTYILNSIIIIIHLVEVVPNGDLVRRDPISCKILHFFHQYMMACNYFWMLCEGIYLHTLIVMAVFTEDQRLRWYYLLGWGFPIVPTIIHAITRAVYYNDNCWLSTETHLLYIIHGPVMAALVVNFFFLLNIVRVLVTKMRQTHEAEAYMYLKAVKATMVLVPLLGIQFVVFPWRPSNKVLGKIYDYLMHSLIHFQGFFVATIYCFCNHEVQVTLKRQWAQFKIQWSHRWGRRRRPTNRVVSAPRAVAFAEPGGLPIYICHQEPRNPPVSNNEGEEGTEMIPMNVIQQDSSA
T3 sequence (looked up) 2: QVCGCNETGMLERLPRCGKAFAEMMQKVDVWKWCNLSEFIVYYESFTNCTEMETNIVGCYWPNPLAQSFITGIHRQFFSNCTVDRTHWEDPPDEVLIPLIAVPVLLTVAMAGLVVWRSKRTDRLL

T4: rat calcitonin receptor (rat, UniProt P32214 25-516)
T4 construct: whole, on cells; In cell membranes prepared from transiently transfected BHK tk'ts 13 cells (Assay VIII); also called rCTR; rat calcitonin (a) receptor
T4 sequence (looked up): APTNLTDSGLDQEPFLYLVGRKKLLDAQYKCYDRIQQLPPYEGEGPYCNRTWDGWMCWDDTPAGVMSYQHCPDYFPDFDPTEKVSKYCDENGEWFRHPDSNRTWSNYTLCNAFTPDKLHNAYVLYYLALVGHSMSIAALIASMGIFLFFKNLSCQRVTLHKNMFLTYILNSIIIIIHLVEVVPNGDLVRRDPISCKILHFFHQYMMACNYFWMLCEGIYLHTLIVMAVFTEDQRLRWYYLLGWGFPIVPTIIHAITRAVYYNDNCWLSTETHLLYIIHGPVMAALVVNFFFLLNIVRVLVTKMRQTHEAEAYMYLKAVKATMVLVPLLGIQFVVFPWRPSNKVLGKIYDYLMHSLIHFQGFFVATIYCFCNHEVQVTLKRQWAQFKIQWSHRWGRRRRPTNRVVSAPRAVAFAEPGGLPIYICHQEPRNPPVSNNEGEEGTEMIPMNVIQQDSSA


Key:
[1] = molecular target: T1, human calcitonin receptor; test: cell-based or functional assay
[2] = molecular target: T2, human amylin 3(a) receptor (human …); test: cell-based or functional assay
[3] = molecular target: T3, rat amylin receptor (rat calcitonin …); test: SPA competition binding, displacement of 125I-rat amylin from membranes of BHK tk'ts 13 cells with rat calcitonin receptor + rat RAMP 3 (Assay VI)
Method: The binding assay was performed using scintillation proximity assay (SPA) beads (RPNQ0001) from PerkinElmer and cell membranes from the Amylin 3(a)/CRE-luc cells (as described in Assay (II)) were used. Membranes were prepared in the following way; the cells were rinsed with PBS and incubated with Versene for approximately 5 min before harvesting. The cells were flushed with PBS and the cell-suspension was centrifuged for 5 min at 1000 rpm. Cells were homogenized (ultrathurrax) in a buffer containing 20 mM Na-HEPES and 10 mM EDTA (pH 7.4) and centrifuged at 20.000 rpm for 15 min. The resulting pellet was resuspended, homogenized and centrifuged (20.000 rpm, 15 min) in a buffer containing 20 mM Na-HEPES and 0.1 mM EDTA (pH 7.4, buffer 2). The resulting pellet was resuspended in buffer 2 and protein concentration was measured (BCA protein Assay, Pierce). The homogenate was kept cold during the whole procedure. The membranes were kept at −80° C. until use. The assay was performed in a 384 well Optiplate (PerkinElmer) in a total volume of 40 ul. Membranes were mixed with SPA beads. Final concentration of membranes 35 ng/μL final and SPA beads was 0.05 mg/well. Test-compounds were dissolved in DMSO and further diluted in assay buffer (50 mM Hepes, pH 7.4, 1 mM CaCl2, 5 mM MgCl₂, 0.1% OA and 0.02% Tween20). […] The final mixture was incubated with shaking at 400 rpm for 120 min at 25° C. prior to centrifugation (1500 rpm, 10 min). Samples were analyzed on TopCounter™ (Packard). The IC₅₀ was calculated using (one site binding competition analysis) GraphPad Prism5 as a measure of receptor affinity.
Cells were grown in DMEM with 10% FBS and 1% Pen/Strep. Approximately 48 hours after transfection, the cells were harvested and membranes were prepared.

rat calcitonin receptor = molecular target: T4, rat calcitonin receptor; test: SPA competition binding, displacement of 125I-Calcitonin from membranes of BHK tk'ts 13 cells with rat calcitonin receptor (Assay VIII)

| hCTR funct. EC50 [1] [nM] | Ratio hCT/hAmylin funct. [2] | IC50 [3] [nM] | IC50 (rat calcitonin receptor) [nM] | Binder |
| --- | --- | --- | --- | --- |
| 1.32 | 6 | – | – | {C20 diacid-γGlu}-GRCNTATCATQRLANFLRHSSPNFGAIPSSTNVGSHTY-NH2 (disulfide 3-8; SMILES CC[C@H](C)[C@H](NC(=O)[C@H](C)NC(=O)CNC(=O)[C@H](Cc1ccccc1)NC(=O)[C@H](CC(N)=O)NC(=O)[C@@H]1CCCN1C(=O)[C@H](CO)NC(=O)[C@H](CO)NC(=O)[C@H](Cc1c[nH]cn1)NC(=O)[C@H](CCCNC(=N)N)NC(=O)[C@H](CC(C)C)NC(=O)[C@H](Cc1ccccc1)NC(=O)[C@H](CC(N)=O)NC(=O)[C@H](C)NC(=O)[C@H](CC(C)C)NC(=O)[C@H](CCCNC(=N)N)NC(=O)[C@H](CCC(N)=O)NC(=O)[C@@H](NC(=O)[C@H](C)NC(=O)[C@@H]1CSSC[C@H](NC(=O)[C@H](CCCNC(=N)N)NC(=O)CNC(=O)CC[C@H](NC(=O)CCCCCCCCCCCCCCCCCCC(=O)O)C(=O)O)C(=O)N[C@@H](CC(N)=O)C(=O)N[C@@H]([C@@H](C)O)C(=O)N[C@@H](C)C(=O)N[C@@H]([C@@H](C)O)C(=O)N1)[C@@H](C)O)C(=O)N1CCC[C@H]1C(=O)N[C@@H](CO)C(=O)N[C@@H](CO)C(=O)N[C@H](C(=O)N[C@@H](CC(N)=O)C(=O)N[C@H](C(=O)NCC(=O)N[C@@H](CO)C(=O)N[C@@H](Cc1c[nH]cn1)C(=O)N[C@H](C(=O)N[C@@H](Cc1ccc(O)cc1)C(N)=O)[C@@H](C)O)C(C)C)[C@@H](C)O, h-amylin derivative, N-terminally extended by one residue; disulfide bridge and C-terminal amide as told for human amylin; also called compound 47) |
| – | – | 1.69 | 536 | K([γGlu-γGlu-C20 diacid])CNTATCATQRLA[dD]FLRHSSPNFGAIPSSTNVGSRTY-NH2 (disulfide 2-7; N-terminus assumed; SMILES CC[C@H](C)[C@H](NC(=O)[C@H](C)NC(=O)CNC(=O)[C@H](Cc1ccccc1)NC(=O)[C@H](CC(N)=O)NC(=O)[C@@H]1CCCN1C(=O)[C@H](CO)NC(=O)[C@H](CO)NC(=O)[C@H](Cc1c[nH]cn1)NC(=O)[C@H](CCCNC(=N)N)NC(=O)[C@H](CC(C)C)NC(=O)[C@H](Cc1ccccc1)NC(=O)[C@@H](CC(=O)O)NC(=O)[C@H](C)NC(=O)[C@H](CC(C)C)NC(=O)[C@H](CCCNC(=N)N)NC(=O)[C@H](CCC(N)=O)NC(=O)[C@@H](NC(=O)[C@H](C)NC(=O)[C@@H]1CSSC[C@H](NC(=O)[C@@H](N)CCCCNC(=O)CC[C@H](NC(=O)CC[C@H](NC(=O)CCCCCCCCCCCCCCCCCCC(=O)O)C(=O)O)C(=O)O)C(=O)N[C@@H](CC(N)=O)C(=O)N[C@@H]([C@@H](C)O)C(=O)N[C@@H](C)C(=O)N[C@@H]([C@@H](C)O)C(=O)N1)[C@@H](C)O)C(=O)N1CCC[C@H]1C(=O)N[C@@H](CO)C(=O)N[C@@H](CO)C(=O)N[C@H](C(=O)N[C@@H](CC(N)=O)C(=O)N[C@H](C(=O)NCC(=O)N[C@@H](CO)C(=O)N[C@@H](CCCNC(=N)N)C(=O)N[C@H](C(=O)N[C@@H](Cc1ccc(O)cc1)C(N)=O)[C@@H](C)O)C(C)C)[C@@H](C)O, residue 14 is D-aspartic acid (printed 14d)) |
| 5.22 | 14 | – | – | K([γGlu-C20 diacid])CNTATCATQRLAEFLRHSSPNFGAIPSSTNVGSRTY-NH2 (disulfide 2-7; N-terminus assumed; SMILES CC[C@H](C)[C@H](NC(=O)[C@H](C)NC(=O)CNC(=O)[C@H](Cc1ccccc1)NC(=O)[C@H](CC(N)=O)NC(=O)[C@@H]1CCCN1C(=O)[C@H](CO)NC(=O)[C@H](CO)NC(=O)[C@H](Cc1c[nH]cn1)NC(=O)[C@H](CCCNC(=N)N)NC(=O)[C@H](CC(C)C)NC(=O)[C@H](Cc1ccccc1)NC(=O)[C@H](CCC(=O)O)NC(=O)[C@H](C)NC(=O)[C@H](CC(C)C)NC(=O)[C@H](CCCNC(=N)N)NC(=O)[C@H](CCC(N)=O)NC(=O)[C@@H](NC(=O)[C@H](C)NC(=O)[C@@H]1CSSC[C@H](NC(=O)[C@@H](N)CCCCNC(=O)CC[C@H](NC(=O)CCCCCCCCCCCCCCCCCCC(=O)O)C(=O)O)C(=O)N[C@@H](CC(N)=O)C(=O)N[C@@H]([C@@H](C)O)C(=O)N[C@@H](C)C(=O)N[C@@H]([C@@H](C)O)C(=O)N1)[C@@H](C)O)C(=O)N1CCC[C@H]1C(=O)N[C@@H](CO)C(=O)N[C@@H](CO)C(=O)N[C@H](C(=O)N[C@@H](CC(N)=O)C(=O)N[C@H](C(=O)NCC(=O)N[C@@H](CO)C(=O)N[C@@H](CCCNC(=N)N)C(=O)N[C@H](C(=O)N[C@@H](Cc1ccc(O)cc1)C(N)=O)[C@@H](C)O)C(C)C)[C@@H](C)O, h-amylin derivative; disulfide bridge and C-terminal amide as told for human amylin; also called compound 51) |

From patent publication US20140087995A1 (published 2014)
